Assay results taken from article PMC11721465 (Molecular Neurodegeneration, 2025).
Changes are numbered by the printed parent chain. In names and notes the source's numbering stands.

B1: TREM2 (19–134) WT, biotinylated (domain or fragment, human, UniProt Q9NZC2 19-134, looked up)
chain: HNTTVFQGVAGQSLQVSCPYDSMKHWGRRKAWCRQLGEKGPCQRVVSTHNLWLLSFLRRWNGSTAITDDTLGGTLTITLRNLQPHDAGLYQCQSLHGSEADTLRKVLVEVLADPLD
modifications: biotin on the C-terminal BirA biotinylation sequence (enzymatic, BirA)
notes: glycosylated (mammalian cells); also called TREM2 WT; source: Expi293F cells, purified, enzymatically biotinylated using BirA
B2: TREM2 (19–134) R47H, biotinylated (domain or fragment, human, UniProt Q9NZC2 19-134, looked up)
chain: B1 chain with R29H
modifications: biotin on the C-terminal BirA biotinylation sequence (enzymatic, BirA)
notes: AD risk variant that occurs in nature; source: Expi293F cells, purified, enzymatically biotinylated using BirA
B3: TREM2 (19–134) R62H, biotinylated (domain or fragment, human, UniProt Q9NZC2 19-134, looked up)
chain: B1 chain with R44H
modifications: biotin on the C-terminal BirA biotinylation sequence (enzymatic, BirA)
notes: as for B2
B4: TREM2 (19–134) D87N, biotinylated (domain or fragment, human, UniProt Q9NZC2 19-134, looked up)
chain: B1 chain with D69N
modifications: biotin on the C-terminal BirA biotinylation sequence (enzymatic, BirA)
notes: as for B2
B5: TREM2 (19–134) T96K, biotinylated (domain or fragment, human, UniProt Q9NZC2 19-134, looked up)
chain: B1 chain with T78K
modifications: biotin on the C-terminal BirA biotinylation sequence (enzymatic, BirA)
notes: as for B2
B6: TREM2 (19–134) R46D, biotinylated (domain or fragment, human, UniProt Q9NZC2 19-134, looked up)
chain: B1 chain with R28D
modifications: biotin on the C-terminal BirA biotinylation sequence (enzymatic, BirA)
notes: source: Expi293F cells, purified, enzymatically biotinylated using BirA
B7: TREM2 (19–134) R77D, biotinylated (domain or fragment, human, UniProt Q9NZC2 19-134, looked up)
chain: B1 chain with R59D
modifications: biotin on the C-terminal BirA biotinylation sequence (enzymatic, BirA)
notes: as for B6
B8: TREM2 (19–134) L75D, biotinylated (domain or fragment, human, UniProt Q9NZC2 19-134, looked up)
chain: B1 chain with L57D
modifications: biotin on the C-terminal BirA biotinylation sequence (enzymatic, BirA)
notes: as for B6
B9: TREM2 (19–134) W78D, biotinylated (domain or fragment, human, UniProt Q9NZC2 19-134, looked up)
chain: B1 chain with W60D
modifications: biotin on the C-terminal BirA biotinylation sequence (enzymatic, BirA)
notes: as for B6
B10: TREM2 (19–134) T85D, biotinylated (domain or fragment, human, UniProt Q9NZC2 19-134, looked up)
chain: B1 chain with T67D
modifications: biotin on the C-terminal BirA biotinylation sequence (enzymatic, BirA)
notes: as for B6
B11: TREM2 (19–134) R122E, biotinylated (domain or fragment, human, UniProt Q9NZC2 19-134, looked up)
chain: B1 chain with R104E
modifications: biotin on the C-terminal BirA biotinylation sequence (enzymatic, BirA)
notes: as for B6
B12: TREM2 (19–134) R122D/K123D, biotinylated (domain or fragment, human, UniProt Q9NZC2 19-134, looked up)
chain: B1 chain with R104D, K105D
modifications: biotin on the C-terminal BirA biotinylation sequence (enzymatic, BirA)
notes: as for B6
B13: TREM2 (19–134) L69D/L71D, biotinylated (domain or fragment, human, UniProt Q9NZC2 19-134, looked up)
chain: B1 chain with L51D, L53D
modifications: biotin on the C-terminal BirA biotinylation sequence (enzymatic, BirA)
notes: as for B6
B14: TREM2 (19–134) W44D/L69D/L71D, biotinylated (domain or fragment, human, UniProt Q9NZC2 19-134, looked up)
chain: B1 chain with W26D, L51D, L53D
modifications: biotin on the C-terminal BirA biotinylation sequence (enzymatic, BirA)
notes: as for B6

The binders below were run against T1, TDP-43, full length, soluble oligomers (human, UniProt Q13148 1-414) (assay: BLI; biotinylated TREM2 WT or variant immobilised on SA biosensors; TDP-43 oligomers 0.625–10 µM; PBS with 0.1% BSA and 0.005% Tween-20; biphasic curves, only qualitatively evaluated). Conditions: both partners purified.
T1 construct: TDP-43, human, full length; oligomers of unstated size; also called oligomeric TDP-43; TDP-43 oligomers; source: E coli, purified from insoluble inclusion bodies, solubilized in 6 M guanidine, oligomers made by 1:100 dilution
T1 sequence (Q13148 whole entry): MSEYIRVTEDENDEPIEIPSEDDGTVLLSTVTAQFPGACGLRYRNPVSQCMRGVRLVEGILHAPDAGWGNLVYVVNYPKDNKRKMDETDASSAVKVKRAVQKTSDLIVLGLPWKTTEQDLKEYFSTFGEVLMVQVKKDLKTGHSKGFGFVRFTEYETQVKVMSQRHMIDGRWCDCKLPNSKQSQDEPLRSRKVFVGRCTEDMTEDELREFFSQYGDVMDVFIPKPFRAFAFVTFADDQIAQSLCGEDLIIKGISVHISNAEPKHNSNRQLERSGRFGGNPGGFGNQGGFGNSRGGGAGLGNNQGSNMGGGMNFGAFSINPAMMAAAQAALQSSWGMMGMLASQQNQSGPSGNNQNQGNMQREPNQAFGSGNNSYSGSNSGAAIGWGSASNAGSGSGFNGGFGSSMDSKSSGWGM

Binder | binding result
B1 | binds
B2 | binds
B3 | binds
B4 | binds

Each binder was assayed against T2, Human IL-34 (19–241) (human, UniProt Q6ZMJ4 19-241) (assay: BLI; biotinylated TREM2 WT or variant immobilised on SA biosensors; IL-34 62.5–1000 nM; PBS with 0.1% BSA and 0.005% Tween-20; 1:1 kinetic fits). Conditions: both partners purified.
T2 construct: IL-34, human, residues 19-241; source: Expi293F cells, secreted, purified from the media using NiNTA chromatography
T2 sequence (looked up): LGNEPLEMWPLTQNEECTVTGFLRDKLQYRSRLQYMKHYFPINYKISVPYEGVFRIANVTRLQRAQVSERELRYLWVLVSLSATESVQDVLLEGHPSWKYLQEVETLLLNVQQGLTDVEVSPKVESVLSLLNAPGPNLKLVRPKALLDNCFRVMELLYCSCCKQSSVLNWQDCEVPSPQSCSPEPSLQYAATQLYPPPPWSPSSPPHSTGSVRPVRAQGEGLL

Binder | Kd [nM]
B1 | 16.5 ± 0.2
B2 | 79.8 ± 2.4
B3 | 75
B4 | 28.4 ± 0.5
B5 | 23.7 ± 0.4
B6 | 18 ± 0.3
B7 | 114 ± 4
B8 | 36.6 ± 0.9
B9 | 17.2 ± 0.4
B10 | 21.5 ± 0.6
B11 | 29.4 ± 0.4
B12 | 18.5 ± 0.3
B13 | 20.2 ± 0.3
B14 | 25.8 ± 0.3

Each binder was assayed against T3, apolipoprotein E3 (UniProt P02649 19-317) (assay: BLI; biotinylated TREM2 WT or variant immobilised on streptavidin (SA) biosensors; apoE in solution (apoE4 0.012–50 µM); PBS with 0.1% BSA and 0.005% Tween-20; double-reference subtraction; steady-state analysis). Conditions: both partners purified.
T3 construct: also called apoE3
T3 sequence (P02649 19-317): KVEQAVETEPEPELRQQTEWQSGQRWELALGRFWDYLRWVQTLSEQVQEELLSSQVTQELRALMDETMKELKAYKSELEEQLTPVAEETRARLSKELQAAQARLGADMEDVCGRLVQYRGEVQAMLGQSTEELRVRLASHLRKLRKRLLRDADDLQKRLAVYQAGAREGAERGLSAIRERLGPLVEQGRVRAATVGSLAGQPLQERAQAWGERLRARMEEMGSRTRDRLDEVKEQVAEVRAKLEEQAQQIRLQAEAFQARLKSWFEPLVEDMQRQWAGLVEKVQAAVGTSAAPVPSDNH

Binder | Kd [nM]
B4 | 79

Each binder was assayed against T4, oligomeric amyloid beta 42 (UniProt P05067 672-713) (assay: not stated; KD of oAβ42 and TREM2 referred to Supplemental Fig. 9; method not given). Conditions: both partners purified.
T4 construct: amyloid beta 42 (Aβ42), cut product of the amyloid precursor protein; oligomers of unstated size; also called oAβ42; Aβ42 oligomers; source: bought: Anaspec; oligomers made from HFIP/DMSO-treated peptide in PBS, 37 °C, 3 h

Binder | Kd [nM]
B1 | 42
